Kd data for two substances are collected here from article PMC3263374.

The experiment addresses ApoE 130-149 (Homo sapiens) (UniProt P02649). In words: NMR. The conditions noted are these: modification not given.

Chain of ApoE 130-149 (Homo sapiens) (P02649 130-149): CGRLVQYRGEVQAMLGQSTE

Broadly, the Kd is the free concentration of one partner at which half of the binding sites on the other are occupied at equilibrium, for simple one-to-one binding. Higher therefore signals lower affinity. Regarding LDLR LA4 (in LA45), P01130, the equilibrium dissociation constant (Kd) stood at 405 µM. LDLR LA5 (in LA45), P01130: the dissociation constant (Kd) was found to be 730 µM.
